According to article PMC8897712 (The Journal of Biological Chemistry, 2022):
Like-named read-outs stand apart in the source and are kept apart here.

Experiments:
FtsA(ΔMTS) [1] = target: T1, FtsA(ΔMTS) (Escherichia coli, UniProt P0ABH0); experiment: sedimentation of polymers; assay type: biochemical; conditions: 50 mM Tris-HCl pH 7.5, 150 mM KCl, 4 mM MgCl2, 23 °C; polymerisation
T1 sequence (P0ABH0 1-404): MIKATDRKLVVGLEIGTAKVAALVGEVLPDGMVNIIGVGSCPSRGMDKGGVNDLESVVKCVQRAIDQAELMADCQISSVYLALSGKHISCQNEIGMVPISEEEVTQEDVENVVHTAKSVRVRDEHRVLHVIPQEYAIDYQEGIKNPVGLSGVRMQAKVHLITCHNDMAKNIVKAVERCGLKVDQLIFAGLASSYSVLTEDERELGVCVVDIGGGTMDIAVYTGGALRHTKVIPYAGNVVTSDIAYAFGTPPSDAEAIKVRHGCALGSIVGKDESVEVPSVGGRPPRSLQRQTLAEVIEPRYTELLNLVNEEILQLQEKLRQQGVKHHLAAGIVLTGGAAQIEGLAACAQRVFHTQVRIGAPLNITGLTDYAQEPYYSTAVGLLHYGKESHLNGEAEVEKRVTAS

FtsA(ΔMTS) [2] = target: T1, FtsA(ΔMTS); conditions: 50 mM Tris-HCl pH 7.5, 150 mM KCl, 4 mM MgCl2, 23 °C, ATP 4 mM; polymerisation
[3] = target: the molecule itself; experiment: negative-stain transmission electron microscopy
FtsA(ΔMTS) [4] = target: T2, FtsA(ΔMTS) (E. coli, UniProt P0ABH0 1-404); experiment: negative-stain transmission electron microscopy
T2 sequence: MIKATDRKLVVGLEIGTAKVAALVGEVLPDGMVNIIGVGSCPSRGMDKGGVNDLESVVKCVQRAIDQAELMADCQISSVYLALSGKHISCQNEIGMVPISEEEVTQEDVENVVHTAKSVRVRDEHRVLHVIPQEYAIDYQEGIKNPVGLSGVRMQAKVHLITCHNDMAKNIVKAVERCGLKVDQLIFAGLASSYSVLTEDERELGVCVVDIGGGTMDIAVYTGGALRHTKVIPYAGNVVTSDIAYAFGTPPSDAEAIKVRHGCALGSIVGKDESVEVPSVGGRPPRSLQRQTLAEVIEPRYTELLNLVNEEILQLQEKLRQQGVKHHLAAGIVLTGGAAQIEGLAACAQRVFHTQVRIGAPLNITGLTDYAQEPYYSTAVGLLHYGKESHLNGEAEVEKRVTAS

FtsA(E14R) = target: T3, FtsA(E14R) (E. coli, UniProt P0ABH0 1-420, E14R); experiment: co-sedimentation
T3 sequence: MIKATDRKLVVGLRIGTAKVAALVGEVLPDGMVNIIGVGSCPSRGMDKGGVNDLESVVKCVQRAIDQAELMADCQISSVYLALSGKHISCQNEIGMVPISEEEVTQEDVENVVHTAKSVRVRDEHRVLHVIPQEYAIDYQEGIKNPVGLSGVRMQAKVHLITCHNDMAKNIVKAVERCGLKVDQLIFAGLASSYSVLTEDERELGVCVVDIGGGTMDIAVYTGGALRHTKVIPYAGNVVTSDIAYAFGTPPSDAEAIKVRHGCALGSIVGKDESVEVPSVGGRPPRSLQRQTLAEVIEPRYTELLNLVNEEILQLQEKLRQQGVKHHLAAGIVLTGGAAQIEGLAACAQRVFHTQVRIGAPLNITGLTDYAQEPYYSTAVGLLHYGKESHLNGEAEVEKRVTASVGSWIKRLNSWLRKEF

Escherichia coli FtsA = target: T4, Escherichia coli FtsA (E. coli, UniProt P0ABH0 1-420); experiment: co-sedimentation
T4 sequence: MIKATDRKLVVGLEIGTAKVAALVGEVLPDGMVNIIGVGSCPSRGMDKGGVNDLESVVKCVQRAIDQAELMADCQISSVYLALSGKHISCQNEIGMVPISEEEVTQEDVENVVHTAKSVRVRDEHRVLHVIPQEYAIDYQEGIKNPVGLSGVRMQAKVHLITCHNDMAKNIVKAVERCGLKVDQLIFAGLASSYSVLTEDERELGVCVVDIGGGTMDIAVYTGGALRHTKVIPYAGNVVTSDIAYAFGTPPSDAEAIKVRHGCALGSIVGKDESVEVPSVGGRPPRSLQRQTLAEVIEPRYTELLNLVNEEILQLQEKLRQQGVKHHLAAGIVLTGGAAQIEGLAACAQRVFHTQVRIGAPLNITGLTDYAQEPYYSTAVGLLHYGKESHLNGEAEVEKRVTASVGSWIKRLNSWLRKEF

FtsA(ΔMTS) [5] = target: T2, FtsA(ΔMTS); experiment: bead recruitment assay

## Nc1ncnc2c1ncn2[C@@H]1O[C@H](COP(=O)(O)OP(=O)(O)O)[C@@H](O)[C@H]1O [ADP]
FtsA(ΔMTS) [1]
  % FtsA(ΔMTS) in pellet: 22.4%

## Nc1ncnc2c1ncn2[C@@H]1O[C@H](COP(=O)(O)OP(=O)(O)OP(=O)(O)O)[C@@H](O)[C@H]1O [ATP]
FtsA(ΔMTS) [2]
  % FtsA(ΔMTS) in pellet: 50.0%

B1: Escherichia coli FtsZ (natural protein)
chain: MFEPMELTNDAVIKVIGVGGGGGNAVEHMVRERIEGVEFFAVNTDAQALRKTAVGQTIQIGSGITKGLGAGANPEVGRNAADEDRDALRAALEGADMVFIAAGMGGGTGTGAAPVVAEVAKDLGILTVAVVTKPFNFEGKKRMAFAEQGITELSKHVDSLITIPNDKLLKVLGRGISLLDAFGAANDVLKGAVQGIAELITRPGLMNVDFADVRTVMSEMGYAMMGSGVASGEDRAEEAAEMAISSPLLEDIDLSGARGVLVNITAGFDLRLDEFETVGNTIRAFASDNATVVIGTSLDPDMNDELRVTVVATGIGMDKRPEITLVTNKQVQQPVMDRYQQHGMAPLTQEQKPVAKVVNDNAPQTAKEPDYLDIPAFLRKQAD
[3]
  binding result: binds
FtsA(ΔMTS) [4]
  binding result: binds
FtsA(E14R)
  binding result: binds
Escherichia coli FtsA
  binding result: binds

B2: H6-Gfp-FtsZ (natural protein)
chain: MFEPMELTNDAVIKVIGVGGGGGNAVEHMVRERIEGVEFFAVNTDAQALRKTAVGQTIQIGSGITKGLGAGANPEVGRNAADEDRDALRAALEGADMVFIAAGMGGGTGTGAAPVVAEVAKDLGILTVAVVTKPFNFEGKKRMAFAEQGITELSKHVDSLITIPNDKLLKVLGRGISLLDAFGAANDVLKGAVQGIAELITRPGLMNVDFADVRTVMSEMGYAMMGSGVASGEDRAEEAAEMAISSPLLEDIDLSGARGVLVNITAGFDLRLDEFETVGNTIRAFASDNATVVIGTSLDPDMNDELRVTVVATGIGMDKRPEITLVTNKQVQQPVMDRYQQHGMAPLTQEQKPVAKVVNDNAPQTAKEPDYLDIPAFLRKQAD
FtsA(ΔMTS) [5]
  binding result: binds
